In the MegaScale stability set (Tsuboyama et al. 2023):

B1: EHEE_rd3_0053 (parent)
chain: TYTFKVDNKDQAKKAAKWAKKLGLSFQIEKHGDTFKITVQ

Variants of: B1
Test: folding stability dG (cDNA display proteolysis); higher = more stable
Details: PBS, room temperature

Folding stability dG [kcal/mol]: each site, then its substitutions
W18: M 1.68; E 0.8; H 1.22; A 1.21; F 1.56; V 1.36; I 1.72; S 0.747; Q 1.17; N 0.859; D 0.328; Y 1.61; L 1.77; K 1.45; T 1.1; R 1.5; G 0.349
L24: D -0.587; V 1.4; S 0.343; W 2.04; R 1.15; K 1.32; Q 0.563; T 0.294; G 0.159; I 1.73; Y 2.33; F 2.2; N 0.22; E -0.483; A 1.01; H 1.31; M 2.11
K20: A 2.29; C 2.67; F 2.07; D 1.48; S 2.08; L 2.28; W 2.14; Y 2.13; P -0.72; R 2.45; M 2.34; H 2.01; I 2.24; G 1.54; E 2.02; T 2.24; N 1.83; V 1.98; Q 2.3
S25: A 2.36; M 2.29; L 2.39; T 2.45; P 1.97; G 1.89; Q 2.37; W 2.38; F 2.31; E 2.21; I 2.43; R 2.4; H 2.29; Y 2.18; V 2.42; N 2.36; K 2.46; D 2.18
K30: M 2.16; S 2.03; Q 2.48; F 1.91; D 1.84; Y 1.92; N 1.88; W 1.64; P 2.09; L 1.98; I 2.15; H 1.91; A 2.21; E 2.04; V 2.21; R 2.5; G 1.57; T 2.04
F35: M 1.31; C 1.93; H 0.715; L 1.49; N -0.413; K -0.99; I 1.85; S -0.159; R 0.294; A 0.298; G -0.794; Q 0.075
T34: R 2.41; N 2.28; H 2.92; M 2.59; A 2.64; I 2.68; G 3.12; E 2.4; Q 2.81; K 2.65; V 2.71; S 2.61; Y 2.92; W 2.72; P -0.409; F 2.79; D 1.89; L 2.36
K17: S 2.33; Y 2.34; P -0.379; F 2.26; Q 2.57; C 2.6; W 2.43; M 2.52; I 2.53; T 2.17; A 2.61; V 2.23; E 2.36; N 2.23; D 2.16; R 2.63; L 2.5; H 2.21; G 1.9
E29: M 2.05; F 1.95; Q 2.19; T 2.48; V 2.43; N 1.77; A 2.06; Y 1.95; C 2.64; H 2.01; D 1.93; K 2.07; G 1.19; W 2; S 2.27; I 2.24; L 1.89; R 2.11
L22: S 1.56; G 0.897; M 2.54; W 2.21; R 2.63; V 1.78; F 2.08; D -0.31; Q 2.14; K 2.44; E 1.46; Y 2.3; A 2.08; C 3.29; I 1.76; N 2.32; T 1.41; H 2.6
G32: E 2.03; R 1.58; W 1.31; Q 1.76; T 0.996; D 1.85; Y 1.59; N 1.96; V 1.19; S 1.31; P 0.72; H 1.61; F 1.65; A 1.64; C 1.78; I 1.21; L 1.7; K 1.77; M 1.7
I28: W 1.53; H 0.125; N -0.243; F 1.47; V 2.23; A 1.42; Q 0.977; R 0.785; S 1.26; K 1.06; E 0.501; T 0.849; M 2.15; Y 1.33; G -0.457; L 1.84
A19: M 2.79; F 2.84; H 0.465; V 1.47; P -0.671; Y 2.32; R -0.112; K -0.645; S 0.85; N -0.253; E -0.425; Q -0.184; I 2.44; T 0.316; L 3.38; W 1.23; G 0.902
A16: Y 2.45
G23: K 1.85; V 0.722; M 1.59; N 1.97; Y 1.1; T 0.657; A 1.23; D 1.02; W 0.761; C 1.62; E 1.08; R 1.66; Q 1.52; L 1.24; H 1.79; S 1.42; P -0.809; F 1.3; I 0.784
K21: M 2.4; T 2.16; E 2.02; V 1.89; I 1.99; W 2.19; Y 2.02; H 2.16; N 2.17; Q 2.24; S 2.43; D 1.89; P -0.644; F 1.98; A 2.41; R 2.49; G 2.12; L 2.15
Q27: Y 2.58; K 2.64; I 2.67; D 1.9; W 2.62; R 2.61; S 2.61; L 2.42; M 2.54; A 2.31; C 2.84; H 2.52; V 2.62; T 2.71; F 2.6; N 2.29; G 1.53; E 2.22
H31: F 2.55; E 2.93; S 2.45; N 2.42; A 2.41; R 2.08; C 3.09; V 2.87; G 1.34; Y 2.45; I 2.89; D 2.97; L 2.59; W 2.41; P 0.239; T 2.66; Q 2.65; K 2.14; M 2.68
F26: T 1.34; Y 2.29; P 0.848; G -0.311; S 1.03; Q -0.496; C 2.68; H 1.02; W 1.88; A 1.81; L 2.13; M 2.05; V 2.54; N -0.442; I 2.64
D33: S 2.33; L 2.14; A 2.18; F 2; P 2.12; M 2.1; W 1.76; I 1.91; N 2.45; T 2.37; G 2.23; Y 1.8; E 2.38; K 2.35; R 2.11; H 2.1; V 1.95; Q 2.16
